What follows are binders tested against TDP-43 recombinant (rTDP-43) (UniProt Q13148 1-414) (assay: pull-down).
Chain of TDP-43 recombinant (rTDP-43) (Q13148 whole entry): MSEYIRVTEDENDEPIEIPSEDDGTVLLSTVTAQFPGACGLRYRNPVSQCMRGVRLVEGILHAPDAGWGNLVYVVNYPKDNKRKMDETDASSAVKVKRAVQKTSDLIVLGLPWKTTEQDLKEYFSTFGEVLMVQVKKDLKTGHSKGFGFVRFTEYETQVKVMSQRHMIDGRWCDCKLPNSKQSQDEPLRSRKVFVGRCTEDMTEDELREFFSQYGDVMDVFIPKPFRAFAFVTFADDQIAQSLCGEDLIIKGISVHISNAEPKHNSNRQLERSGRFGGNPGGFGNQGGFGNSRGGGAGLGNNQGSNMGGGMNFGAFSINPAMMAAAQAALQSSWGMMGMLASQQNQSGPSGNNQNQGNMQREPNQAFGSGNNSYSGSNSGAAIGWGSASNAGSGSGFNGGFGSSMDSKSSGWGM
UUUUUUGUGUGUUAAUGGUGUGUG (ssRNA) [G3BP1 3' UTR probe (nt334-358)]: binds.
UGUGUGUGUGUGCGCGUGUGCGUGUG (ssRNA) [GRN (nt262-288) probe]: binds.
ACACACACACACACACACACACAC (ssRNA) [(AC)12]: no binding.
